Columns and labels:
SEC = target: the molecule itself; assay: SEC
mass photometry = target: the molecule itself; assay: mass photometry

B1: Teneurin‐m superfold (Ten‐m^SF), residues 779–2731 (domain or fragment)
chain: LNCGDSKDNDKDGLVDCEDPECCASHVCKTSQLCVSAPKPIDVLLRKQPPAITASFFERMKFLIDESSLQNYAKLETFNESRSAVIRGRVVTSLGMGLVGVRVSTTTLLEGFTLTRDDGWFDLMVNGGGAVTLQFGRAPFRPQSRIVQVPWNEVVIIDLVVMSMSEEKGLAVTTTHTCFAHDYDLMKPVVLASWKHGFQGACPDRSAILAESQVIQESLQIPGTGLNLVYHSSRAAGYLSTIKLQLTPDVIPTSLHLIHLRITIEGILFERIFEADPGIKFTYAWNRLNIYRQRVYGVTTAVVKVGYQYTDCTDIVWDIQTTKLSGHDMSISEVGGWNLDIHHRYNFHEGILQKGDGSNIYLRNKPRIILTTMGDGHQRPLECPDCDGQATKQRLLAPVALAAAPDGSLFVGDFNYIRRIMTDGSIRTVVKLNATRVSYRYHMALSPLDGTLYVSDPESHQIIRVRDTNDYSQPELNWEAVVGSGERCLPGDEAHCGDGALAKDAKLAYPKGIAISSDNILYFADGTNIRMVDRDGIVSTLIGNHMHKSHWKPIPCEGTLKLEEMHLRWPTELAVSPMDNTLHIIDDHMILRMTPDGRVRVISGRPLHCATASTAYDTDLATHATLVMPQSIAFGPLGELYVAESDSQRINRVRVIGTDGRIAPFAGAESKCNCLERGCDCFEAEHYLATSAKFNTIAALAVTPDSHVHIADQANYRIRSVMSSIPEASPSREYEIYAPDMQEIYIFNRFGQHVSTRNILTGETTYVFTYNVNTSNGKLSTVTDAAGNKVFLLRDYTSQVNSIENTKGQKCRLRMTRMKMLHELSTPDNYNVTYEYHGPTGLLRTKLDSTGRSYVYNYDEFGRLTSAVTPTGRVIELSFDLSVKGAQVKVSENAQKEMSLLIQGATVIVRNGAAESRTTVDMDGSTTSITPWGHNLQMEVAPYTILAEQSPLLGESYPVPAKQRTEIAGDLANRFEWRYFVRRQQPLQAGKQSKGPPRPVTEVGRKLRVNGDNVLTLEYDRETQSVVVMVDDKQELLNVTYDRTSRPISFRPQSGDYADVDLEYDRFGRLVSWKWGVLQEAYSFDRNGRLNEIKYGDGSTMVYAFKDMFGSLPLKVTTPRRSDYLLQYDDAGALQSLTTPRGHIHAFSLQTSLGFFKYQYYSPINRHPFEILYNDEGQILAKIHPHQSGKVAFVHDTAGRLETILAGLSSTHYTYQDTTSLVKSVEVQEPGFELRREFKYHAGILKDEKLRFGSKNSLASARYKYAYDGNARLSGIEMAIDDKELPTTRYKYSQNLGQLEVVQDLKITRNAFNRTVIQDSAKQFFAIVDYDQHGRVKSVLMNVKNIDVFRLELDYDLRNRIKSQKTTFGRSTAFDKINYNADGHVVEVLGTNNWKYLFDENGNTVGVVDQGEKFNLGYDIGDRVIKVGDVEFNNYDARGFVVKRGEQKYRYNNRGQLIHSFERERFQSWYYYDDRSRLVAWHDNKGNTTQYYYANPRTPHLVTHVHFPKISRTMKLFYDDRDMLIALEHEDQRYYVATDQNGSPLAFFDQNGSIVKEMKRTPFGRIIKDTKPEFFVPIDFHGGLIDPHTKLVYTEQRQYDPHVGQWMTPLWETLATEMSHPTDVFIYRYHNNDPINPNKPQNYMIDLDSWLQLFGYDLNNMQSSRYTKLAQYTPQASIKSNTLAPDFGVISGLECIVEKTSEKFSDFDFVPKPLLKMEPKMRNLLPRVSYRRGVFGEGVLLSRIGGRALVSVVDGSNSVVQDVVSSVFNNSYFLDLHFSIHDQDVFYFVKDNVLKLRDDNEELRRLGGMFNISTHEISDHGGSAAKELRLHGPDAVVIIKYGVDPEQERHRILKHAHKRAVERAWELEKQLVAAGFQGRGDWTEEEKEELVQHGDVDGWNGIDIHSIHKYPQLADDPGNVAFQRDAKRKRRKTGSSHRSASNRRQLKFGELSA
- stoichiometry N (SEC): 2
- stoichiometry N (mass photometry): ~4

From article PMC10240212 (EMBO Reports, 2023)
